What was measured:
[1] = biological target: Mth1491 homotrimer with a cysteine introduced at position 92, modified with azo maleimide 3 (Methanobacterium thermoautotrophicum); assay: affinity chromatography on beta-cyclodextrin resin with LC-MS of fractions; Mth1491 modified to about 50% with azo maleimide 3, eluted from a column packed with resin 4 (beta-cyclodextrin on sepharose CL-4B); four peaks for the modification states of the trimer; isolated singly and doubly modified species repurified; trimer disassembles upon LC-MS
[2] = biological target: Mth1491 homotrimer with a cysteine introduced at position 92, tagged, azo-cleaved, AF-labelled and protected with Ellman's reagent (Methanobacterium thermoautotrophicum); assay: dynamic light scattering; average particle size before and after protection with Ellman's reagent (5.5 ± 0.3 nm to 7.4 ± 0.9 nm)

“Mth1491 homotrimer with a cysteine introduced at position 92, modified with azo maleimide 3 (natural protein)” was tested, and the stoichiometry N [1] was 3.

“Mth1491 homotrimer with a cysteine introduced at position 92, tagged, azo-cleaved, AF-labelled and protected with Ellman's reagent (natural protein)” was tested, and the stoichiometry N [2] was 3.
